Measurements as given in patent EP0833843B1.

Molecular target: MC1-R (melanocyte-stimulating hormone receptor)
Assay: inhibition of MC1-R activation by the purified recombinant ASP preparation; assay details not given (Ollmann et al., in preparation)

- Ki: 220 pM
Substance: Recombinant mouse agouti signal protein (ASP) (ligand)
